Numbering of substitutions follows the chain as printed. In names and notes the source's numbering stands. Entries after “also recorded” stand apart in the source; their conditions may differ.
Assays:
Jurkat cells [1] = assay: AZT sensitivity in LV-TMPK (Lentigen) transduced Jurkat cells; format: cell-based, human; conditions: increasing concentrations of AZT
Description: The function of tmpk was tested by assessing sensitivity to AZT (FIG. 21).

Jurkat cells [2] = assay: HPLC determination of intracellular AZT metabolites in cells treated with 100 μM AZT; format: cell-based, human
Description: The cells were cultured in the presence of 100 μM AZT for 36 hrs. 10^7 cells were homogenized by sonication in 100 μl of 5% (w/v) trichloroacetic acid. The supernatant is collected after homogenate had been centrifuged at 10,000×g for 15 min at 4° C. The trichloroacetic acid was removed by extraction with an equal volume of 20% tri-n-octylamine in pentane. The neutralized aqueous fraction is directly injected into HPLC. Separation of AZT and its metabolites was performed on a C18 column (Waters) with a mobile phase composed of 0.2 M phosphate buffer containing 4 mM tetrabutylammonium hydrogen sulfate (pH 7.5) and acetonitrile in the ratio of 97:3 (v/v). The mobile phase was pumped at a flow rate of 1.5 ml/min. The UV absorbance was monitored at 270 nm. Five million cell equivalents were injected and analyzed in triplicate.
Cells were cultured in the presence of 100 μM AZT for 36 h. 10^7 cells were homogenized by sonication in 100 μl of 5% (w/v) trichloroacetic acid (TCA). The supernatant was collected after centrifugation at 10,000×g for 15 min at 4° C. TCA was removed by extraction with an equal volume of 20% tri-n-octylamine in pentane. The neutralized aqueous fraction was directly injected into the HPLC machine (Waters, Milford. MA). Separation of AZT and its metabolites were performed on a C18 column (Waters), with a mobile phase composed of 0.2 M phosphate buffer containing 4 mM tetrabutylammonium hydrogen sulfate (pH 7.5) and acetonitrile in the ratio of 97:3 (v/v)^48 at a flow rate of 1.5 ml/min. The UV absorbance was monitored at 270 nm. Standards for each AZT-metabolite (AZT-MP, AZT-DP, and AZT-TP) were purchased from Moravek Biochemicals (Brea, Calif.). Five million cell equivalents were injected and analyzed in triplicate.

Jurkat cells [3] = assay: AZT sensitivity of LV-tmpk-transduced Jurkat cells (MTT cell viability assay); format: cell-based, human; conditions: for cell viability upon addition of AZT (in words), Example 15: clonal Jurkat cells, AZT up to 1 mM, 4 days
Description: Transduced Jurkat cells and the single-cell clones were seeded in 96 well plates (2×10^5/well) in 200 μl of medium containing increasing concentrations of AZT (0, 1, 10 and 100 μM). The medium was changed daily. […] Data are expressed as mean±standard error of mean (SEM).
To examine the AZT-mediated celikilling activity of tmpk cDNA, each of transduced cells were incubated with the increasing concentration of AZT. After incubating both non-transduced and LV-transduced cells with AZT for […], cell viability was determined using MTT assay (FIG. 4A).
Transduced Jurkat cells and single-cell clones were seeded in 96 well plates (2×10^5 cells/well) in 200 μl of the RPMI medium described above with increasing concentrations of AZT (0, 0.1, 1, 10, 100 μM, and 1 mM). The medium was changed daily. After 4 days of culture, cell viability was determined by using Cell Titer 96 Aqueous One Solution Cell Proliferation Assay kit (Promega, Madison, Wis.).

Jurkat cells [4] = assay: AZT-induced apoptosis/cell killing under cell cycle arrest with indirubin-3'-oxime; format: cell-based, human
Description: Cells were seeded in 24-well plates (10^6/well) in 1 ml of medium containing 0 (shown in AZT (−) in figure) or 100 μM of AZT (shown in AZT (+)) with or without 5 μM indirubin-3′-oxime (Figure (B) and (A), respectively). The medium was refreshed daily. After 2 days of culture, induction of apoptosis by AZT was analyzed by annexin V staining according to the manufacturer's protocol described. **, P<0.01, n=3. Data are expressed as mean±SEM.
(§1) For evaluation of the induction of apoptosis, treated Jurkat clonal cells were stained with Annexin V. Briefly, cells were seeded in 24 well plates (10^6 cells/well) in 1 ml of medium with or without 100 μM AZT. After 4 days of culture, Annexin V staining was performed according to the manufacturer's protocol (Annexin V-APC: BD Pharmingen). For testing whether AZT-mediated cell killing depends on the cellular proliferation, indirubin-3′-monoxime (final concentration 5 μM, Sigma-Aldrich, St. Louis, Mo.) was added simultaneously with 100 μM AZT to the culture.
(§2) To simplify comparative studies a relative apoptotic index was calculated. Here data obtained was normalized by dividing results from AZT treated cells in each condition by the results obtained without added AZT. Values were reported as fold increases. Statistical significance between groups was calculated by ANOVA.

Jurkat cells [5] = assay: Activation of caspase 3 by AZT (FITC-DEVD-FMK, flow cytometry); format: cell-based, human; conditions: clonal Jurkat cells, 100 μM AZT, 4 days
Description: (§3) Transduced cells […] were treated with 100 μM AZT for 4 days or left untreated. To detect changes in the mitochondrial inner membrane potential, the cells were incubated with 5,5′,6,6′-tetrachloro-1,1′,3,3′-tetraethylbenzimidazolylcarbocyanine iodide (JC-1, Molecular Probes Inc.) for 30 min at 37° C., and were then analyzed using a FACS Calibur. The activation of caspase-3 in cells was examined using the FACS Calibur following incubation with an FITC-labeled caspase 3 inhibitor peptide (FITC-DEVD-FMK, Calbiochem, San Diego, Calif.) for 1 hr at 37° C.

K562 cells = assay: Growth of transduced K562 cells xenografted into AZT-treated NOD/SCID mice; format: in vivo; conditions: for tumor size / final tumor volume: transduced K562 cells sc in NOD/SCID mice, four and a half weeks past injection
Description: Female or male 5 to 8-week-old non-obese diabetic/severe combined immunodeficient (NOD/SCID) mice were purchased from Jackson Laboratory. Lentivirally-transduced or non-transduced K562 cells (20×10^6 cells) were resuspended in 0.5 mL Dulbecco's phosphate-buffered saline (D-PBS) per inoculum and injected subcutaneously (SC) into the right flanks of recipient mice. AZT treatment, which was administered intraperitoneally (IP) at the dose of 2.5 mg/kg/day, was started one day after injection and conducted for 14 days. In vivo tumor cell growth was monitored by measuring tumor size for up to 32 days post-inoculations. All experimental data were reproduced at least twice.
Transduced K562 cells were affinity-purified by MACS using magnetic beads conjugated with an anti-human CD19 monoclonal antibody (Miltenyi Biotec Inc., Auburn, Calif.). The purity of the cells following isolation was evaluated by FACS Calibur. Non-obese diabetic/severe combined immunodeficiency (NOD/SCID) mice (5 to 8-weeks old, purchased from Jackson Laboratories, Bar Harbor, Me.) were maintained at the Animal Resource Centre at the Princess Margaret Hospital (Toronto, ON, Canada). The entire animal experimental procedure followed a protocol approved by the Animal Care Committee of the UHN. Experimental groups consisted of male and female NOD/SCID mice injected with 2×10^7 K562 cells (resuspended in 0.5 mL D-PBS; Oxoid, Basingstoke, England) that were either lentivirally-transduced (n=10 for each LV) or non-transduced (NT) (n=10). Injections were performed subcutaneously (sc) into the dorsal right flanks of recipient mice as previously described^49. One day after injection of the cells, half of the mice in each group (n=5) began receiving daily AZT injections, administered intraperitoneally (ip) at a dose of 2.5 mg/kg/day for 14 days. Tumor growth was measured by caliper and calculated as 0.5×length×width^2 (in mm^3) for up to […].

Jurkat cells [6] = assay: Loss of mitochondrial membrane potential after AZT (JC-1 staining, flow cytometry); format: cell-based, human; conditions: transduced Jurkat cells, 100 μM AZT
Description: Cells (10^6 cells) treated with (shown (+) in figure) or without (−) 100 μM AZT were stained with JC-1 for […] at 37° C., and then were analyzed by flow cytometry. ***, P<0.001, n=3.
as §3

Jurkat cells [7] = assay: Induction of apoptosis by 100 μM AZT in LV-tmpk-transduced Jurkat cells (annexin V staining); format: cell-based, human; conditions: 4 days; for early apoptotic cell index in response to AZT treatment: transduced Jurkat cells, n=3
Description: Cells were seeded in 24 well plates (10^6/well) in 1 ml of medium with or without 100 μM of AZT. The medium was changed daily. After 4 days of culture, induction of apoptosis in the cells were analyzed by annexin-V staining according to the manufacturer's protocol (Annexin V-APC: BD Pharmingen). **, P<0.01, n=3. Data are expressed as mean±SEM.
as §1, §2

[8] = Enzymatic activity of tmpk mutants for AZT-MP; format: biochemical, human
primary human T cells = assay: Induction of apoptosis by AZT in transduced primary human T cells (annexin V); format: cell-based; conditions: 100 μM AZT, 4 days
Description: Human T lymphocytes were isolated from PBMNCs contained within heparinized blood obtained from healthy human donors by Ficoll-Hypaque (GE Healthcare) separations. Mouse T cells were prepared from B cell-depleted splenocyte preparations using goat anti-mouse IgG beads (BioMag, Qiagen, Mississauga, ON). T cells were activated by using anti-CD3 and anti-CD28 coated beads (PMID: 12855580) in a ratio of 1:3 (cell:beads) with 20 IU/mL of recombinant human interleukin 2 (R&D Systems, Minneapolis, Minn.) for 3 days. Cells were infected with concentrated virus stocks for 3 h on ice using an indicated MOI in the presence of 8 μg/ml protamine sulfate. Infected cells were then kept in culture for 5 days prior to evaluating gene transfer efficiency. Gene transfer efficiencies were measured by flow cytometry using a monoclonal anti-human CD19-antibody conjugated with phycoerythrin (PE) as described above. Induction of apoptosis following AZT-exposure was evaluated by Annexin V-staining as above.

## Cc1cn([C@H]2C[C@H](N=[N+]=[N-])[C@@H](CO)O2)c(=O)[nH]c1=O [AZT, Zidovudine, reference compound]
Jurkat cells [1]
  AZT sensitivity of transduced cells (in words): dose dependent killing
Jurkat cells [2]; non-transduced Jurkat cells, 100 μM AZT for 36 h
  intracellular ratio of AZT-TP to AZT-MP in non-transduced cells: 0.02
Jurkat cells [3]; Homo sapiens, 120 h, LV-tmpk mutant transduced Jurkat cells, AZT 0-100 μM, 5 days, read-out: IC50 of AZT for killing of transduced cells
  IC50: 2 µM

B1: wild-type tmpk: wild-type human thymidylate kinase overexpressed by LV transduction, comparator (protein, UniProt P23919 2-212, looked up)
Thymidylate kinase: AARRGALIVLEGVDRAGKSTQSRKLVEALCAAGHRAELLRFPERSTEIGKLLSSYLQKKSDVEDHSVHLLFSANRWEQVPLIKEKLSQGVTLVVDRYAFSGVAFTGAKENFSLDWCKQPDVGLPKPDLVLFLQLQLADAAKRGAFGHERYENGAFQERALRCFHQLMKDTTLNWKMVDASKSIEAVHEDIRVLSEDAIRTATEKPLGELWK
Jurkat cells [4]; clonal Jurkat cells, 100 μM AZT + 5 μM indirubin-3'-monoxime, 4 days
  apoptotic index with AZT in presence of indirubin-3'-monoxime (in words): No significant increases
Jurkat cells [4]; transduced Jurkat cells, indirubin-3'-oxime 5 μM, 100 μM AZT, 2 days
  cells killed by AZT after cell cycle arrest: 2%
Jurkat cells [5]
  activation of caspase 3 by AZT (in words): slight, but significant, increase
K562 cells; transduced K562 cells in NOD/SCID mice, AZT 2.5 mg/kg for two weeks
  tumor growth under AZT (in words), Example 8/10: no significant reduction in tumor volume
K562 cells; AZT 2.5 mg/kg for two weeks
  tumor size / final tumor volume: 2000 mm^2
Jurkat cells [6]
  loss of mitochondrial (inner) membrane potential after AZT treatment (in words): did not demonstrate a similar loss of mitochondrial inner membrane potential
Jurkat cells [7]
  early apoptotic cell index in response to AZT treatment: 6.2±0.3%
Jurkat cells [2]; LV-transduced Jurkat cells, 100 μM AZT for 36 h
  intracellular ratio of AZT-TP to AZT-MP: 0.10
Jurkat cells [2]; clonal Jurkat cells, 100 μM AZT 36 h
  conversion of AZT-MP / accumulation of AZT-TP (in words): no significant increases in the accumulation of AZT-TP
Jurkat cells [3]
  cell viability upon addition of AZT (in words), Example 15: limited cell killing
Jurkat cells [3]; transduced Jurkat cells, AZT up to 100 μM
  AZT sensitivity / cell killing of transduced cells (in words): non-sensitive to AZT up to 100 μM; also recorded: unaffected by AZT up to 100 μM

B2: R200A: modified human tmpk, R to A mutation at amino acid position 200 (SEQ ID NOS: 15 and 16) (protein, UniProt P23919 2-212, looked up, variant R200A)
Thymidylate kinase: B1 Thymidylate kinase with R199A
[8]
  enzymatic activity / catalytic conversion compared to wild-type tmpk (in words): superior enzymatic activity

B3: F105Y: modified human thymidylate kinase (tmpk), F to Y mutation at amino acid position 105 (SEQ ID NO: 11, 21) (protein, UniProt P23919 2-212, looked up, variant F105Y)
Thymidylate kinase: B1 Thymidylate kinase with F104Y
Jurkat cells [4]; clonal Jurkat cells, 100 μM AZT + 5 μM indirubin-3'-monoxime, 4 days, normalized to no AZT
  fold increase of apoptotic index by AZT in presence of indirubin-3'-monoxime: 2.3±0.4 fold
Jurkat cells [5]; normalized to no AZT
  fold increase in percentage of activated caspase 3-positive cells by AZT: 4.6±0.1 fold
K562 cells; 2×10^7 transduced K562 cells sc in NOD/SCID mice, AZT 2.5 mg/kg/day ip for two weeks, day 14
  tumor growth under daily AZT (in words), Example 15: strongly inhibited; also recorded: suppression of tumor growth
K562 cells; AZT 2.5 mg/kg for two weeks
  tumor size / final tumor volume: 100-300 mm^2
Jurkat cells [6]
  loss of mitochondrial (inner) membrane potential after AZT treatment (in words): significant increase
Jurkat cells [7]; clonal Jurkat cells, normalized to no AZT
  fold increase of apoptotic index by AZT-treatment: 9.5±0.8 fold
Jurkat cells [7]
  early apoptotic cell index in response to AZT treatment: 40.7±1.7%
Primary human T cells
  fold increase of apoptotic index by AZT: 4.0±0.3 fold
[8]
  enzymatic activity / catalytic conversion compared to wild-type tmpk (in words): substantially increased catalytic conversion of AZT; also recorded: superior enzymatic activity
Jurkat cells [3]
  cell viability upon addition of AZT (in words), Example 15: minimally viable

Source: patent publication US20090068158A1, “THYMIDYLATE KINASE MUTANTS AND USES THEREOF” (priority 2005, published 2009)
